# Columns and labels:
# HLA-DR2b = target: T1, HLA-DR2b (human); experiment: conclusion of Example 6; tolerance induction in HLA:DR2 (DRB1*1501) transgenic mice, no direct binding assay
# T1 construct: whole, on cells; also called DR2b [DRB1*1501]; HLA:DR2 (DRB1*1501)
# HLA-DQ6 = HLA-DQ6 (human, UniProt P01909 24-254; P01920 33-261); experiment: cell-based or functional assay
binder,measurement,setting,value
GFKGVDAQGTLSKIF (also called ATX-MS-06; APITOPE MS6) [MBP 140-154],binding result,HLA-DR2b,binds
RASDYKSAHKGFKGV [MBP 130-144],"proliferation of T-cell clone MS17:A2 ([3H]-thymidine, stimulation index), against Mgar control cells",HLA-DQ6,3.24 fold
PRHRDTGILDSIGRF [MBP 30-44],"proliferation of T-cell clone MS 49:D3 ([3H]-thymidine, stimulation index), against Mgar control cells",HLA-DQ6,1.5 fold
